Source: patent US20050282743A1, “Molecular interactions in cells” (Arbor Vita Corporation, priority 2001, published 2005)
Each block holds one substance with its values, some of them ahead of it. Ends that are not written are not given here. * marks the point of attachment. Biotin = O=C1N[C@H]2[C@H](CS[C@H]2CCCCC(=O)*)N1

What was measured:
Format in all cases: binding
DLG-1 = molecular target: T1, DLG-1 (Homo sapiens, UniProt Q12959); assay: G assay competition of short unlabeled peptides with biotinylated 20-mers (Example 6, TABLE 6); conditions: 100 = no competitor
T1 construct: protein spans from amino terminal end of first PDZ domain to carboxy-terminal end of third PDZ domain in frame with GST in vector; made in house; host or cells: E. coli DH5alpha
From the text: (§1) The potential for unlabeled 8-mers and 3-mers to compete for binding with biotinylated 20-mers to PDZ domains was examined. Interactions between a PDZ domain and two or more biotinylated peptides mimicking PDZ ligands identified through the ‘G Assay’ were used as model interactions. Short, 3 or 8 amino acid, unlabeled peptides were synthesized by standard techniques and used at variable concentrations with a set concentration of biotinylated 20-mer. Ability of both the 3-mer and 8-mer to inhibit longer peptide binding was observed, making PDZ:PL interactions an attractive target for design of small molecule or peptide therapeutics.
(§2) Peptides representing the C-terminal 3, 8 or 20 amino acids of a PDZ ligand were synthesized by standard FMOC chemistry and biotinylated if not used as an unlabeled competitor. Peptides three amino acids in length were acetylated to more properly mimic the peptide bond without introducing an amino-terminal charged group. Peptides were purified by reverse phase high performance liquid chromatography (HPLC) using a Vydac 218TP C18 Reversed Phase column having the dimensions of 10*25 mm, 5 um. Approximately 40 mg of peptide was dissolved in 2.0 ml of and aqueous solution of 49.9% acetonitrile and 0.1% Tri-Fluoro acetic acid (TFA). This solution was then injected into the HPLC machine through a […] syringe filter (Millipore). Buffers used to get a good separation are (A) distilled water with 0.1% TFA and (B) 0.1% TFA with Acetonitrile.
(§3) The G Assay was performed as described in EXAMPLE 3 with the exception that when a short competitor was used, 30 ul of competitor peptide (at twice the final concentration) was mixed with 30 ul biotinylated 20-mer (at twice the final concentration) and then added to the well.
(§4) PSD-95 and DLG-1 were incubated in the wells at 5 ug/ml as described in the G Assay protocol. Biotinylated 20-mer peptides used were 20 uM CLASP-2, 20 uM CD46, 10 uM CD95, and 10 uM KV1.3 (find sequences of peptides in TABLE 8). Competitors (unlabeled, short peptides) tested against each of the biotinylated peptides were 50 uM 8-mer of CD95, 100 uM 8-mer of CD46, 50 uM 8-mer of CLASP-2, and 1 mM and 500 uM acetylated 3-mer of CLASP-2. To deduce sequences, refer to TABLE 8. All absorbances were read at 450 nm after stopping TMB detection reaction at 30 min. Results were normalized in each group by dividing its A450 by the A450 of the PDZ/peptide binding in the absence of competitor and converting to percentage by multiplying by 100.

PSD-95 = molecular target: T2, PSD-95 (Homo sapiens, UniProt P78352); assay: as above; conditions: for % binding: 100 = no competitor
T2 construct: protein spans from amino terminal end of first PDZ domain to carboxy-terminal end of third PDZ domain in frame with GST in vector; made in house; host or cells: E. coli DH5alpha
From the text: as §1, §2, §3, §4

[1] = test system: PDZ protein (GST-PDZ fusion); assay: G' assay (10 uM PL peptide), results of TABLE 7 and TABLE 12
From the text: (§5) Each page of TABLE 7 and 12 includes seven columns. The columns in each table are numbered from left to right such that the left-most column in each table is column 1 and the right-most column in each table is column 7. Thus, the first column in each table is labeled “AVC ID”; this column simply lists an internal reference number used to refer to the carboxyl-terminal amino acids of the PL proteins listed in the second column. […] All PL peptides were biotinylated at the amino-terminus and the sequences of these PL peptides are presented in TABLE 8 (see end of specification).
(§6) This column provides the gene name for the PDZ portion of the GST-PDZ fusion that interacts with the PDZ-ligand to the left. For PDZ domain-containing proteins with multiple domains, the domain number is listed to the right of the PDZ (i.e., in column 5 labeled “PDZ Domain”), and indicates the PDZ domain number when numbered from the amino-terminus to the carboxy-terminus.
(§7) The third column labeled “Peptide Optimal Concentration” in the tables is a number reflective of the binding interaction between the PL protein and PDZ protein. […] The column labeled “Protein Optimal Concentration” refers to the protein concentration used to assay PL interaction (in ug/ml); a ‘0’ is indicative of 5 ug/ml protein concentration; any other value represents the concentration (in ug/ml) used to determine the dissociation constant for a given interaction.
(§8) Finally, the seventh column labeled “Classification” is another measure of the level of binding. In particular, it provides an absorbance value at 450 nm which indicates the amount of PL peptide bound to the PDZ protein. The following numerical values have the following meanings: ‘1’—A450 nm 0-1; ‘2’—A450 nm 1-2; ‘3’—A450 nm 2-3; ‘4’—A450 nm 3-4; ‘5’—A450 nm of 4 more than 2× repeated; ‘0’—A450 nm 0, i.e., not found to interact. Thus, higher numbers indicate stronger interactions.
(§9) For convenience, the assay conditions described in this section are referred to as the “G′ assay” and the “G″ assay,” with the specific conditions described in the preceding section on G assays being referred to as the “G^0 assay.” The “G′ assay” is identical to the “G^0 assay” except at step (2) the peptide concentration is 10 uM instead of 20 uM.

[2] = molecular target: T3, PDZ protein (GST-PDZ fusion) (Homo sapiens, UniProt Q9NZN5); assay: as above; conditions: PDZ KIAA0382, PDZ Domain 1
T3 construct: made in house; host or cells: E. coli (DH5alpha, BL21 or JM109)
From the text: as §5, §6, §7, §8, §9

[3] = molecular target: T4, PDZ protein (GST-PDZ fusion) (Homo sapiens, UniProt Q6P0Q8); assay: as above
T4 construct: made in house; host or cells: E. coli (DH5alpha, BL21 or JM109)
From the text: as §5, §6, §7, §8, §9

[4] = molecular target: T5, PDZ protein (GST-PDZ fusion) (Homo sapiens, UniProt Q9P202); assay: as above; conditions: PDZ KIAA1526, PDZ Domain 1
T5 construct: made in house; host or cells: E. coli (DH5alpha, BL21 or JM109)
T5 sequence (Q9P202 1-907): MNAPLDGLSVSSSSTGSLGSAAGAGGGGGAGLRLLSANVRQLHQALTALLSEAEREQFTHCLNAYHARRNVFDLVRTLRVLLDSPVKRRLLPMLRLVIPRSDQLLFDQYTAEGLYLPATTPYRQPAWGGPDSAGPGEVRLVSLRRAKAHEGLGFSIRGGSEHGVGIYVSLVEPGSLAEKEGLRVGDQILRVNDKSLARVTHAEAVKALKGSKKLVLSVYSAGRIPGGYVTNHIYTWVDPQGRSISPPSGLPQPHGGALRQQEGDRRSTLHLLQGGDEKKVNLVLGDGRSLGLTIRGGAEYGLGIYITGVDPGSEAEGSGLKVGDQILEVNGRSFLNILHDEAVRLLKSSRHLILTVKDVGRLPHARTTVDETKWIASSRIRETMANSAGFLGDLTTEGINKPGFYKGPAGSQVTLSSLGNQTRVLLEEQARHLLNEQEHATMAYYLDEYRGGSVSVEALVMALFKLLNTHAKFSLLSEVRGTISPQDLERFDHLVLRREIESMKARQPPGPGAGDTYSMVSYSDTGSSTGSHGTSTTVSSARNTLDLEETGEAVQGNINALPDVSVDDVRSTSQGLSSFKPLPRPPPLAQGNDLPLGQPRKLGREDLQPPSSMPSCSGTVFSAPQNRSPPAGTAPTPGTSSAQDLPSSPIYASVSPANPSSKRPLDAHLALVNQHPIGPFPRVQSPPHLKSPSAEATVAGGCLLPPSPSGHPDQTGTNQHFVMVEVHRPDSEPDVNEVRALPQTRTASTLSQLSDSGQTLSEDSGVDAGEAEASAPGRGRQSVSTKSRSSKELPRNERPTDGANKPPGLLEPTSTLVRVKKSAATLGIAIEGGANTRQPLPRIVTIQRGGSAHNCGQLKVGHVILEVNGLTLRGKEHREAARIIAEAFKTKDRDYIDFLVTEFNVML
From the text: as §5, §6, §7, §8, §9

[5] = molecular target: T6, PDZ protein (GST-PDZ fusion) (Homo sapiens, UniProt Q13796); assay: as above; conditions: PDZ hAPXL, PDZ Domain 1
T6 construct: made in house; host or cells: E. coli (DH5alpha, BL21 or JM109)
From the text: as §5, §6, §7, §8, §9

[6] = molecular target: T7, PDZ protein (GST-PDZ fusion) (Homo sapiens, UniProt O14907); assay: as above; conditions: PDZ TIP1, PDZ Domain 1
T7 construct: made in house; host or cells: E. coli (DH5alpha, BL21 or JM109)
T7 sequence (O14907 1-124): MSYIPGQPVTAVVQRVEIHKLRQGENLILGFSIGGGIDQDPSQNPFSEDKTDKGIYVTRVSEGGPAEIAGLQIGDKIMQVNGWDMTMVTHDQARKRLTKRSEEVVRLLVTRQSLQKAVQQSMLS
From the text: as §5, §6, §7, §8, §9

[7] = molecular target: T8, PDZ protein (GST-PDZ fusion) (Homo sapiens, UniProt O15018); assay: as above; conditions: PDZ AIPC, PDZ Domain 1
T8 construct: made in house; host or cells: E. coli (DH5alpha, BL21 or JM109)
From the text: as §5, §6, §7, §8, §9

[8] = biotinylated 20-mer CD46 20 uM, competitor 50 uM
[9] = biotinylated 20-mer CD95 10 uM, competitor 50 uM
[10] = biotinylated 20-mer CLASP-2 20 uM, competitor 50 uM
[11] = biotinylated 20-mer CD46 20 uM, competitor 500 uM
[12] = biotinylated 20-mer CD46 20 uM, competitor 1000 uM
[13] = biotinylated 20-mer CD95 10 uM, competitor 500 uM
[14] = biotinylated 20-mer CD95 10 uM, competitor 1000 uM
[15] = biotinylated 20-mer CLASP-2 20 uM, competitor 500 uM
[16] = biotinylated 20-mer CLASP-2 20 uM, competitor 1000 uM
[17] = biotinylated 20-mer CD46 20 uM, competitor 100 uM
[18] = biotinylated 20-mer CD95 10 uM, competitor 100 uM
[19] = biotinylated 20-mer CLASP-2 20 uM, competitor 100 uM
[20] = biotinylated 20-mer KV1.3 10 uM, competitor 100 uM

T1 sequence (Q12959 224-546 limits assumed): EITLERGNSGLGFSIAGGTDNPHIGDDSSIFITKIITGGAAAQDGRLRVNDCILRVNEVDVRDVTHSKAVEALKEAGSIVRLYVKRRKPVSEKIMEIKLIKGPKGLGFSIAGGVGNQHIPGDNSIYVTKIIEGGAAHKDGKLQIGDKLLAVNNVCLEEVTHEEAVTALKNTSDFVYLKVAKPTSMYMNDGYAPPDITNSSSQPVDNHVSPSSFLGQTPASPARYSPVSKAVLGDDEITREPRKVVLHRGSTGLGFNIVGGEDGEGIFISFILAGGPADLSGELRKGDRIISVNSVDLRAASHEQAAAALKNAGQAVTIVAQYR
T2 sequence (P78352 58-398 limits assumed): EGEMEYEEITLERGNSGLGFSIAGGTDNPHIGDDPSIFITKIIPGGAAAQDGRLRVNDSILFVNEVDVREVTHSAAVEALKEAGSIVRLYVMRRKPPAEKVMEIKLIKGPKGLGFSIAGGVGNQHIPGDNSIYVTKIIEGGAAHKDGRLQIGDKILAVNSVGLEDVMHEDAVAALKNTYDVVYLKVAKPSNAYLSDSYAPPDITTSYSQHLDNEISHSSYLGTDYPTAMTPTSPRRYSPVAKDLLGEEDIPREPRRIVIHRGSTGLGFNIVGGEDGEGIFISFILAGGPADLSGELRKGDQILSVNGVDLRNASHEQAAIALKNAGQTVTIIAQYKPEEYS
T4 sequence (Q6P0Q8 whole entry, the tested form may be a part): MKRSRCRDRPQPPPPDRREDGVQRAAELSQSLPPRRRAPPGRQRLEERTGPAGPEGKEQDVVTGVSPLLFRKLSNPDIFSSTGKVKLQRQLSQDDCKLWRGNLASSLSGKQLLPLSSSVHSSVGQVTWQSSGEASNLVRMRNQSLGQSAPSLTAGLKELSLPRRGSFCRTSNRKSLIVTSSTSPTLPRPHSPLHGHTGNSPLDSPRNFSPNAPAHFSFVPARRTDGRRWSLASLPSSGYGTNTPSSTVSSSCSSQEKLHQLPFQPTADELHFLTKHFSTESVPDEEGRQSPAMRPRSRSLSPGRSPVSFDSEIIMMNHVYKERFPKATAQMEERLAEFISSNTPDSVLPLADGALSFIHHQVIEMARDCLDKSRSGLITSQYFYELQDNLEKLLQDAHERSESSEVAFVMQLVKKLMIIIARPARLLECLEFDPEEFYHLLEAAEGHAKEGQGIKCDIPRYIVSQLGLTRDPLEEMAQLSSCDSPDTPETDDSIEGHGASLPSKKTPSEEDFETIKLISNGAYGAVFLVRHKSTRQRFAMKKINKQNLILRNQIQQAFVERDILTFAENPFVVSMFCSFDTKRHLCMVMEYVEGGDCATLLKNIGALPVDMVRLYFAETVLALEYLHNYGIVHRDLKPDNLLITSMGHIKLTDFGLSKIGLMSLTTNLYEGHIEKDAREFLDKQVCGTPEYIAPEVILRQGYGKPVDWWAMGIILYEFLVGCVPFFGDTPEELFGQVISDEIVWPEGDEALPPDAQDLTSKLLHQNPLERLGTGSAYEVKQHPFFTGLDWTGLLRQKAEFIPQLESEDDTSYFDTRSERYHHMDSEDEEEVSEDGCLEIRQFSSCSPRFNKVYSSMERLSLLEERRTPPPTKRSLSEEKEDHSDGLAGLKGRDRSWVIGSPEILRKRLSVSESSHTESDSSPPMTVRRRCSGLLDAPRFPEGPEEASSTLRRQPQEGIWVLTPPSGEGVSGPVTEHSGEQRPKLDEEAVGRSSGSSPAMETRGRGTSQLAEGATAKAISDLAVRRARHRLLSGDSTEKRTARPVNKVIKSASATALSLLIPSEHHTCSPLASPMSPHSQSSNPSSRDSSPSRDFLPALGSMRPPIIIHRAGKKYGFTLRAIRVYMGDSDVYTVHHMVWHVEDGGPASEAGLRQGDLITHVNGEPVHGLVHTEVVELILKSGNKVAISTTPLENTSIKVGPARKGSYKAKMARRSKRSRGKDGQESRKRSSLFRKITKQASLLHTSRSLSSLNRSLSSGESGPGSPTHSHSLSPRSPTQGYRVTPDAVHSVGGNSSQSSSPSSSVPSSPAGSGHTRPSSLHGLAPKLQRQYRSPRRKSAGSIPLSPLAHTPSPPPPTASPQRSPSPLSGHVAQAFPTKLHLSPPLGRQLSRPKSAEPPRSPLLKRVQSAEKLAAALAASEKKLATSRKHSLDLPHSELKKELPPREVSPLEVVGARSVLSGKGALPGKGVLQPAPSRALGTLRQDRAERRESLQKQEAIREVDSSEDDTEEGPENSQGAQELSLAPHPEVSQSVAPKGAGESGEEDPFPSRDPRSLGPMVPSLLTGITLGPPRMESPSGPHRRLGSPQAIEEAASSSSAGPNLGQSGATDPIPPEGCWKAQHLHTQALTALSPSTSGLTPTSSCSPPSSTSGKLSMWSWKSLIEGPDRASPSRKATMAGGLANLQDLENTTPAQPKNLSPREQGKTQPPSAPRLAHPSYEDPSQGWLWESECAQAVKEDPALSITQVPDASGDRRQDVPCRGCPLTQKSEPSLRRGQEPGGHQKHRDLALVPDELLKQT
T6 sequence (Q13796 whole entry, the tested form may be a part): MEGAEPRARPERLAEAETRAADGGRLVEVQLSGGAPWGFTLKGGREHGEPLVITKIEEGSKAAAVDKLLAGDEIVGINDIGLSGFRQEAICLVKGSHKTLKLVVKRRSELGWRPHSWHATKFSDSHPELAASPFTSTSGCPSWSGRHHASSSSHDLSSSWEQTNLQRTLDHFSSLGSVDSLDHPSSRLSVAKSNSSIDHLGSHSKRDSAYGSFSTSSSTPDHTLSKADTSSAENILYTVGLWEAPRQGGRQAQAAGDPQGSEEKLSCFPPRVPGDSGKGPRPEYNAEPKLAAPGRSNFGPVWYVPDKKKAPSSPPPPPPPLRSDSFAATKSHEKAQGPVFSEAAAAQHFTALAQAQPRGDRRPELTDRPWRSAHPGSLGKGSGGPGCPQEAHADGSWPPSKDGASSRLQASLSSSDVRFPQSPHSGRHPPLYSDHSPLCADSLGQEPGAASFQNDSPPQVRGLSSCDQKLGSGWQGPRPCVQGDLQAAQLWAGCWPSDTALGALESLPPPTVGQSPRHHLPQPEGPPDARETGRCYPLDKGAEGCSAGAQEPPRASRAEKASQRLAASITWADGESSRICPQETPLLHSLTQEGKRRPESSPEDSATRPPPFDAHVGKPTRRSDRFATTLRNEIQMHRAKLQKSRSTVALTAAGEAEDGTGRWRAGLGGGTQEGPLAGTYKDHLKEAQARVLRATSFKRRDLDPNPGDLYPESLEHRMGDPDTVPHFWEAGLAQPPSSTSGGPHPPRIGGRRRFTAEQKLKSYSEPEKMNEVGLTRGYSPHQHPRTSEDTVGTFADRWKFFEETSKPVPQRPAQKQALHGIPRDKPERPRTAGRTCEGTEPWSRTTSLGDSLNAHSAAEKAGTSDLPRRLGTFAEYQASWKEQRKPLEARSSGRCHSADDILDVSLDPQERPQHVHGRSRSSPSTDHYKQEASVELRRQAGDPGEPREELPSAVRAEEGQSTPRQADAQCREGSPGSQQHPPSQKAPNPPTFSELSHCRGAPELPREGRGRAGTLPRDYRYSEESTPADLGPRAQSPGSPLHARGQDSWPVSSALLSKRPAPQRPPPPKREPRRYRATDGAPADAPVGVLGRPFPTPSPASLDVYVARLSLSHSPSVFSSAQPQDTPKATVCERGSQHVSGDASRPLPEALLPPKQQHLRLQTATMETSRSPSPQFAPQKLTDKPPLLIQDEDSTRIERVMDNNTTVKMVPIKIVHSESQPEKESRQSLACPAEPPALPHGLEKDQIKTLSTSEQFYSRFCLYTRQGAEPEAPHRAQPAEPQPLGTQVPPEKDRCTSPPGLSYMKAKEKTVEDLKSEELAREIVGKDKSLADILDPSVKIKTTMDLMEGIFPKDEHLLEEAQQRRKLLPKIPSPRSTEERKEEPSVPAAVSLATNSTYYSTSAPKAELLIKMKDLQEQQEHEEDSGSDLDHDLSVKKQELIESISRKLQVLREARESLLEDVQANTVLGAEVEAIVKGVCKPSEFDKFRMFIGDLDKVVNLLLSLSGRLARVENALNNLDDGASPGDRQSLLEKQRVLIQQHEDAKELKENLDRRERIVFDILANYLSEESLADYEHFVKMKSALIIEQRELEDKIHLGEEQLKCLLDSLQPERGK

Substance: MTSSSSVV [CLASP-2 8-mer, unlabeled peptide of the C-terminal 8 amino acids of CLASP-2]
- % binding (DLG-1; [8]): 105%
- % binding (DLG-1; [9]): 75%
- % binding (DLG-1; [10]): 93%
- % binding (PSD-95; [8]): 90%
- % binding (PSD-95; [9]): 80%
- % binding (PSD-95; [10]): 85%
- % binding (PSD-95; biotinylated 20-mer KV1.3 10 uM, competitor 50 uM): 82%

Substance: GTSDMKDLVGNIEQNEHSVI [Mannose Receptor]
- Classification ([1]; PDZ FLJ 00011, PDZ Domain 1): 1 (A450 nm 0-1)
- Classification [5]: 1 (A450 nm 0-1)
- Classification ([3]; PDZ KIAA807): 1 (A450 nm 0-1)
- Classification ([3]; PDZ KIAA0807(S), PDZ Domain 1): 1 (A450 nm 0-1)

Substance: ACM3_HUMAN (Biotin-QQYQQRQSVIFHKRAPEQAL)
- Classification [5]: 1 (A450 nm 0-1)
- Classification [7]: 1 (A450 nm 0-1)
- Classification ([3]; PDZ KIAA807): 1 (A450 nm 0-1)
- Classification ([3]; PDZ KIAA0807(S), PDZ Domain 1): 1 (A450 nm 0-1)

Substance: SEGGRPTRGPRLQGRRVTQV [HPV E6 52 (modified)]
- Classification ([1]; PDZ BAI-1, PDZ Domain 2): 5 (A450 nm of 4 more than 2× repeated)
- Classification [6]: 0 (A450 nm 0, i.e., not found to interact)

Substance: SGGNRARQERLQRRRETQV (Biotin-SGGNRARQERLQRRRETQV) [HPV E6 #18]
- Classification ([1]; PDZ BAI-1, PDZ Domain 2): 5 (A450 nm of 4 more than 2× repeated)
- Classification [6]: 4 (A450 nm 3-4)

Substance: REVKFTSL [CD46 8-mer, unlabeled peptide of the C-terminal 8 amino acids of CD46]
- % binding (DLG-1; [17]): 90%
- % binding (DLG-1; [18]): 68%
- % binding (DLG-1; [19]): 90%
- % binding (DLG-1; [20]): 63%
- % binding (PSD-95; [17]): 95%
- % binding (PSD-95; [18]): 65%
- % binding (PSD-95; [19]): 81%
- % binding (PSD-95; [20]): 71%

More lines, main results first:

- Classification [2]: 2 (A450 nm 1-2)
- Classification ([3]; PDZ KIAA807): 5 (A450 nm of 4 more than 2× repeated)
- Classification ([3]; PDZ KIAA0807(S), PDZ Domain 1): 5 (A450 nm of 4 more than 2× repeated)
Substance: KDSRPSFVGSSSGHTSTTL (Biotin-KDSRPSFVGSSSGHTSTTL) [CDw128B]
- Classification ([1]; PDZ SHANK, PDZ Domain 1): 3 (A450 nm 2-3)

- Classification [4]: 1 (A450 nm 0-1)
Substance: SSPTYRALLLQGPSQSSSEA (Biotin-SSPTYRALLLQGPSQSSSEA)

- Classification [6]: 1 (A450 nm 0-1)
Substance: GPDGIITVNDFTQNPRVQLE (Biotin-GPDGIITVNDFTQNPRVQLE) [ropporin]

- % binding (DLG-1; [11]): 72%
- % binding (DLG-1; [12]): 45%
- % binding (DLG-1; [13]): 51%
- % binding (DLG-1; [14]): 46%
- % binding (DLG-1; [15]): 61%
- % binding (DLG-1; [16]): 59%
- % binding (PSD-95; [11]): 75%
- % binding (PSD-95; [12]): 59%
- % binding (PSD-95; [13]): 55%
- % binding (PSD-95; [14]): 55%
- % binding (PSD-95; [15]): 82%
- % binding (PSD-95; [16]): 63%
- % binding (PSD-95; biotinylated 20-mer KV1.3 10 uM, competitor 500 uM): 81%
- % binding (PSD-95; biotinylated 20-mer KV1.3 10 uM, competitor 1000 uM): 50%
- reduction of labeled ligand binding (PSD-95; competitor 1 mM, 50-100-fold excess, summary of TABLE 6, PDZ not given): up to 50%
Substance: SVV [CLASP-2 3-mer, acetylated peptide of the C-terminal 3 amino acids of CLASP-2]
